Source: the supplement of paper PMC5998384

Test system: HeLa Kyoto
Test: thermal stability score vs G1/S (z-score of summed log2 fold changes over temperatures); higher = more thermally stable than in G1/S
[1] = cell cycle stage: early G1 (4.5 h after nocodazole release)
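Further: synchronized HeLa Kyoto cells, proteins quantified by TMT10plex mass spectrometry, three biological replicates, mitosis taken 0.5 h after nocodazole release, G1/S directly after double thymidine block.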

Sequence	thermal stability score [1]	thermal stability score (cell cycle stage: mitosis)
MAEQVLPQALYLSNMRKAVKIRERTPEDIFKPTNGIIHHFKTMHRYTLEMFRTCQFCPQFREIIHKALIDRNIQATLESQKKLNWCREVRKLVALKTNGDGNCLMHATSQYMWGVQDTDLVLRKALFSTLKETDTRNFKFRWQLESLKSQEFVETGLCYDTRNWNDEWDNLIKMASTDTPMARSGLQYNSLEEIHIFVLCNILRRPIIVISDKMLRSLESGSNFAPLKVGGIYLPLHWPAQECYRYPIVLGYDSHHFVPLVTLKDSGPEIRAVPLVNRDRGRFEDLKVHFLTDPENEMKEKLLKEYLMVIEIPVQGWDHGTTHLINAAKLDEANLPKEINLVDDYFELVQHEYKKWQENSEQGRREGHAQNPMEPSVPQLSLMDVKCETPNCPFFMSVNTQPLCHECSERRQKNQNKLPKLNSKPGPEGLPGMALGASRGEAYEPLAWNPEESTGGPHSAPPTAPSPFLFSETTAMKCRSPGCPFTLNVQHNGFCERCHNARQLHASHAPDHTRHLDPGKCQACLQDVTRTFNGICSTCFKRTTAEASSSLSTSLPPSCHQRSKSDPSRLVRSPSPHSCHRAGNDAPAGCLSQAARTPGDRTGTSKCRKAGCVYFGTPENKGFCTLCFIEYRENKHFAAASGKVSPTASRFQNTIPCLGRECGTLGSTMFEGYCQKCFIEAQNQRFHEAKRTEEQLRSSQRRDVPRTTQSTSRPKCARASCKNILACRSEELCMECQHPNQRMGPGAHRGEPAPEDPPKQRCRAPACDHFGNAKCNGYCNECFQFKQMYG [TNFAIP3]	0.262	-0.606
MEPGEVKDRILENISLSVKKLQSYFAACEDEIPAIRNHDKVLQRLCEHLDHALLYGLQDLSSGYWVLVVHFTRREAIKQIEVLQHVATNLGRSRAWLYLALNENSLESYLRLFQENLGLLHKYYVKNALVCSHDHLTLFLTLVSGLEFIRFELDLDAPYLDLAPYMPDYYKPQYLLDFEDRLPSSVHGSDSLSLNSFNSVTSTNLEWDDSAIAPSSEDYDFGDVFPAVPSVPSTDWEDGDLTDTVSGPRSTASDLTSSKASTRSPTQRQNPFNEEPAETVSSSDTTPVHTTSQEKEEAQALDPPDACTELEVIRVTKKKKIGKKKKSRSDEEASPLHPACSQKKCAKQGDGDSRNGSPSLGRDSPDTMLASPQEEGEGPSSTTESSERSEPGLLIPEMKDTSMERLGQPLSKVIDQLNGQLDPSTWCSRAEPPDQSFRTGSPGDAPERPPLCDFSEGLSAPMDFYRFTVESPSTVTSGGGHHDPAGLGQPLHVPSSPEAAGQEEEGGGGEGQTPRPLEDTTREAQELEAQLSLVREGPVSEPEPGTQEVLCQLKRDQPSPCLSSAEDSGVDEGQGSPSEMVHSSEFRVDNNHLLLLMIHVFRENEEQLFKMIRMSTGHMEGNLQLLYVLLTDCYVYLLRKGATEKPYLVEEAVSYNELDYVSVGLDQQTVKLVCTNRRKQFLLDTADVALAEFFLASLKSAMIKGCREPPYPSILTDATMEKLALAKFVAQESKCEASAVTVRFYGLVHWEDPTDESLGPTPCHCSPPEGTITKEGMLHYKAGTSYLGKEHWKTCFVVLSNGILYQYPDRTDVIPLLSVNMGGEQCGGCRRANTTDRPHAFQVILSDRPCLELSAESEAEMAEWMQHLCQAVSKGVIPQGVAPSPCIPCCLVLTDDRLFTCHEDCQTSFFRSLGTAKLGDISAVSTEPGKEYCVLEFSQDSQQLLPPWVIYLSCTSELDRLLSALNSGWKTIYQVDLPHTAIQEASNKKKFEDALSLIHSAWQRSDSLCRGRASRDPWC [PLEKHM2]	-1.92	-1.58
MSSSLRPGPSRWRRAASIVLAAGWSRPETATPPSRPPPAEGFRLLLLQRSPHQGFMPGAHVFSGGVLDAADRSADWLGLFAPHHGPPRFGLGPAPFSRTAFPSLPDTDDHKTDNTGTLPEDVAFRICAVREAFEEAGVLLLRPRTSPPGPAPGPGLALEPPPGLASWRDRVRQDPRHFLRLCAHLDCTPDIWALHNWSAWLTPFLRGTTRRFDTAFFLCCLREPPPVYPDLAEVVGYQWSSPSEATESFLSKEIWLPPPQFYEVRRLANFASLSDLHKFCLGRALEGLERWLPIILLTADGMVHLLPGDELYLEDSDFLENLMSTEKKTEEIMKEGKQFHRIVTYHRHLYDIHVTVQPKYKHVYPKNSVVRKSHL [NUDT19]	-1.25	-1.33
MWSGPPQPDQGLPPPLAAVPVPWKSTDPCQGHRESPGALVETSAGEEAQGQEGPAAAQLDVLRLRSSSMEIREKGSEFLKEELHRAQKELKLKDEECERLSKVREQLEQELEELTASLFEEAHKMVREANMKQAASEKQLKEARGKIDMLQAEVTALKTLVITSTPASPNRELHPQLLSPTKAGPRKGHSRHKSTSSTLCPAVCPAAGHTLTPDREGKEVDTILFAEFQAWRESPTLDKTCPFLERVYREDVGPCLDFTMQELSVLVRAAVEDNTLTIEPVASQTLPTVKVAEVDCSSTNTCALSGLTRTCRHRIRLGDSKSHYYISPSSRARITAVCNFFTYIRYIQQGLVRQDAEPMFWEIMRLRKEMSLAKLGFFPQEA [RAB3IL1]	-0.0366	0.539
MAPLRPLLILALLAWVALADQESCKGRCTEGFNVDKKCQCDELCSYYQSCCTDYTAECKPQVTRGDVFTMPEDEYTVYDDGEEKNNATVHEQVGGPSLTSDLQAQSKGNPEQTPVLKPEEEAPAPEVGASKPEGIDSRPETLHPGRPQPPAEEELCSGKPFDAFTDLKNGSLFAFRGQYCYELDEKAVRPGYPKLIRDVWGIEGPIDAAFTRINCQGKTYLFKGSQYWRFEDGVLDPDYPRNISDGFDGIPDNVDAALALPAHSYSGRERVYFFKGKQYWEYQFQHQPSQEECEGSSLSAVFEHFAMMQRDSWEDIFELLFWGRTSAGTRQPQFISRDWHGVPGQVDAAMAGRIYISGMAPRPSLAKKQRFRHRNRKGYRSQRGHSRGRNQNSRRPSRATWLSLFSSEESNLGANNYDDYRMDWLVPATCEPIQSVFFFSGDKYYRVNLRTRRVDTVDPPYPRSIAQYWLGCPAPGHL [VTN]	2.31	-1.24
MLIKEYHILLPMSLDEYQVAQLYMIQKKSREESSGEGSGVEILANRPYTDGPGGSGQYTHKVYHVGSHIPGWFRALLPKAALQVEEESWNAYPYTRTRYTCPFVEKFSIEIETYYLPDGGQQPNVFNLSGAERRQRILDTIDIVRDAVAPGEYKAEEDPRLYHSVKTGRGPLSDDWARTAAQTGPLMCAYKLCKVEFRYWGMQAKIEQFIHDVGLRRVMLRAHRQAWCWQDEWTELSMADIRALEEETARMLAQRMAKCNTGSEGSEAQPPGKPSTEARSAASNTGTPDGPEAPPGPDASPDASFGKQWSSSSRSSYSSQHGGAVSPQSLSEWRMQNIARDSENSSEEEFFDAHEGFSDSEEVFPKEMTKWNSNDFIDAFASPVEAEGTPEPGAEAAKGIEDGAQAPRDSEGLDGAGELGAEACAVHALFLILHSGNILDSGPGDANSKQADVQTLSSAFEAVTRIHFPEALGHVALRLVPCPPICAAAYALVSNLSPYSHDGDSLSRSQDHIPLAALPLLATSSSRYQGAVATVIARTNQAYSAFLRSPEGAGFCGQVALIGDGVGGILGFDALCHSANAGTGSRGSSRRGSMNNELLSPEFGPVRDPLADGVEGLGRGSPEPSALPPQRIPSDMASPEPEGSQNSLQAAPATTSSWEPRRASTAFCPPAASSEAPDGPSSTARLDFKVSGFFLFGSPLGLVLALRKTVMPALEAAQMRPACEQIYNLFHAADPCASRLEPLLAPKFQAIAPLTVPRYQKFPLGDGSSLLLADTLQTHSSLFLEELEMLVPSTPTSTSGAFWKGSELATDPPAQPAAPSTTSEVVKILERWWGTKRIDYSLYCPEALTAFPTVTLPHLFHASYWESADVVAFILRQVIEKERPQLAECEEPSIYSPAFPREKWQRKRTQVKIRNVTSNHRASDTVVCEGRPQVLSGRFMYGPLDVVTLTGEKVDVYIMTQPLSGKWIHFGTEVTNSSGRLTFPVPPERALGIGVYPVRMVVRGDHTYAECCLTVVARGTEAVVFSIDGSFTASVSIMGSDPKVRAGAVDVVRHWQDSGYLIVYVTGRPDMQKHRVVAWLSQHNFPHGVVSFCDGLTHDPLRQKAMFLQSLVQEVELNIVAGYGSPKDVAVYAALGLSPSQTYIVGRAVRKLQAQCQFLSDGYVAHLGQLEAGSHSHASSGPPRAALGKSSYGVAAPVDFLRKQSQLLRSRGPSQAEREGPGTPPTTLARGKARSISLKLDSEE [PITPNM1]	0.586	0.463
